Changes are numbered by the printed parent chain. Names and notes keep the numbering of the source.
B1: hCXCL11.0024-G1T4k.one//VHn-G1T4h.one.H435R (Fc fusion)
chain 1: FFPMFKRGRCLCIGPGVKAVKVADIEKASIMYPSNNCDKIEVIITLKENKGQRCLNPKSKQARLIIKKVERKNFEPKSSDKTHTCPPCPAPELRRGPSVFLFPPKPKDTLMISRTPEVTCVVVDVSHEDPEVKFNWYVDGVEVHNAKTKPREEQYNSTYRVVSVLTVLHQDWLNGKEYKCKVSNKGLPSSIEKTISKAKGQPREPQVCTLPPSREEMTKNQVSLWCLVKGFYPSDIAVEWESNGQPENNYKTTPPVLDSDGSFFLYSKLTVDKSRWQEGNVFSCSVMHEALHNHYTQKSLSLSP
chain 2: EPKSSDKTHTCPPCPAPELRRGPSVFLFPPKPKDTLMISRTPEVTCVVVDVSHEDPEVKFNWYVDGVEVHNAKTKPREEQYNSTYRVVSVLTVLHQDWLNGKEYKCKVSNKGLPSSIEKTISKAKGQPREPQVYTLPPSRCEMTKNQVSLSCAVKGFYPSDIAVEWESNGQPENNYKTTPPVLDSDGSFFLVSKLTVDKSRWQEGNVFSCSVMHEALHNRYTQKSLSLSP
B2: hCXCL11.0026-G1T4k.one//VHn-G1T4h.one.H435R (Fc fusion)
chain 1: B1 chain 1 with F1H
chain 2: B1 chain 2
B3: hCXCL11.0027-G1T4k.one//VHn-G1T4h.one.H435R (Fc fusion)
chain 1: B1 chain 1 with F1I
chain 2: B1 chain 2
B4: hCXCL11.0028-G1T4k.one//VHn-G1T4h.one.H435R (Fc fusion)
chain 1: B1 chain 1 with F1K
chain 2: B1 chain 2
B5: hCXCL11.0029-G1T4k.one//VHn-G1T4h.one.H435R (Fc fusion)
chain 1: B1 chain 1 with F1L
chain 2: B1 chain 2
B6: hCXCL11.0030-G1T4k.one//VHn-G1T4h.one.H435R (Fc fusion)
chain 1: B1 chain 1 with F1M
chain 2: B1 chain 2
B7: hCXCL11.0031-G1T4k.one//VHn-G1T4h.one.H435R (Fc fusion)
chain 1: B1 chain 1 with F1N
chain 2: B1 chain 2
B8: hCXCL11.0032-G1T4k.one//VHn-G1T4h.one.H435R (Fc fusion)
chain 1: B1 chain 1 with F1P
chain 2: B1 chain 2
B9: hCXCL11.0033-G1T4k.one//VHn-G1T4h.one.H435R (Fc fusion)
chain 1: B1 chain 1 with F1Q
chain 2: B1 chain 2
B10: hCXCL11.0034-G1T4k.one//VHn-G1T4h.one.H435R (Fc fusion)
chain 1: B1 chain 1 with F1R
chain 2: B1 chain 2
B11: hCXCL11.0035-G1T4k.one//VHn-G1T4h.one.H435R (Fc fusion)
chain 1: B1 chain 1 with F1S
chain 2: B1 chain 2
B12: hCXCL11.0036-G1T4k.one//VHn-G1T4h.one.H435R (Fc fusion)
chain 1: B1 chain 1 with F1T
chain 2: B1 chain 2
B13: hCXCL11.0037-G1T4k.one//VHn-G1T4h.one.H435R (Fc fusion)
chain 1: B1 chain 1 with F1V
chain 2: B1 chain 2
B14: hCXCL11.0038-G1T4k.one//VHn-G1T4h.one.H435R (Fc fusion)
chain 1: B1 chain 1 with F1W
chain 2: B1 chain 2
B15: hCXCL11.0039-G1T4k.one//VHn-G1T4h.one.H435R (Fc fusion)
chain 1: B1 chain 1 with F1Y
chain 2: B1 chain 2
B16: hCXCL11.0040-G1T4k.one//VHn-G1T4h.one.H435R (Fc fusion)
chain 1: B1 chain 1 with F2A
chain 2: B1 chain 2
B17: hCXCL11.0041-G1T4k.one//VHn-G1T4h.one.H435R (Fc fusion)
chain 1: B1 chain 1 with F2D
chain 2: B1 chain 2
B18: hCXCL11.0042-G1T4k.one//VHn-G1T4h.one.H435R (Fc fusion)
chain 1: B1 chain 1 with F2E
chain 2: B1 chain 2
B19: hCXCL11.0044-G1T4k.one//VHn-G1T4h.one.H435R (Fc fusion)
chain 1: B1 chain 1 with F2G
chain 2: B1 chain 2
B20: hCXCL11.0045-G1T4k.one//VHn-G1T4h.one.H435R (Fc fusion)
chain 1: B1 chain 1 with F2H
chain 2: B1 chain 2
B21: hCXCL11.0046-G1T4k.one//VHn-G1T4h.one.H435R (Fc fusion)
chain 1: B1 chain 1 with F2I
chain 2: B1 chain 2
B22: hCXCL11.0047-G1T4k.one//VHn-G1T4h.one.H435R (Fc fusion)
chain 1: B1 chain 1 with F2K
chain 2: B1 chain 2

target: T1, human CXCR3 (hCXCR3) on Ba/F3 transfectant cells (human, UniProt P49682 1-368); assay: cell-based or functional assay
T1 sequence: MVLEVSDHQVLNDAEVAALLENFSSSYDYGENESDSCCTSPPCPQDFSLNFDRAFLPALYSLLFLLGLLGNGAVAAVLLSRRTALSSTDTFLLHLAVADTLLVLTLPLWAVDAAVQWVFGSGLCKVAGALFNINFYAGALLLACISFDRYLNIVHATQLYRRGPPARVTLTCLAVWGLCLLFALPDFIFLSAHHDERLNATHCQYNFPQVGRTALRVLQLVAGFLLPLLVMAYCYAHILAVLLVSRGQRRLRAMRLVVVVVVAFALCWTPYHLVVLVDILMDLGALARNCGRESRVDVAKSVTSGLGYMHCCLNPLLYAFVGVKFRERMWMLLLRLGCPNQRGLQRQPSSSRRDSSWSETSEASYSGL

First: B1
Second: B2
The “Activity retention rate at 33 nM” value of the first is lower: 32% for the first, 71% for the second.

First: B3
Second: B4
The “Activity retention rate at 33 nM” value of the first is higher: 67% for the first, 26% for the second.

Going from B5 to B6, the “Activity retention rate at 33 nM” value rises from 53% to 114%.

First: B7
Second: B8
The “Activity retention rate at 33 nM” value of the first is higher: 165% for the first, 33% for the second.

Going from B9 to B10, the “Activity retention rate at 33 nM” value falls from 199% to 19%.

Going from B11 to B12, the “Activity retention rate at 33 nM” value falls from 161% to 140%.

Compared with B13, B14 is lower in “Activity retention rate at 33 nM” value: 111% for the first, 60% for the second.

Going from B15 to B16, the “Activity retention rate at 33 nM” value falls from 102% to 81%.

First: B17
Second: B18
The “Activity retention rate at 33 nM” value of the first is lower: 25% for the first, 61% for the second.

First: B19
Second: B20
The “Activity retention rate at 33 nM” value of the first is higher: 68% for the first, 61% for the second.

Going from B21 to B22, the “Activity retention rate at 33 nM” value falls from 10% to 5%.

Compared with B1, B2 is higher in “Activity retention rate at 100 nM” value: 72% for the first, 77% for the second.

Going from B3 to B4, the “Activity retention rate at 100 nM” value falls from 100% to 53%.

Compared with B5, B6 is higher in “Activity retention rate at 100 nM” value: 92% for the first, 98% for the second.

Going from B7 to B8, the “Activity retention rate at 100 nM” value falls from 90% to 68%.

Compared with B9, B10 is lower in “Activity retention rate at 100 nM” value: 92% for the first, 45% for the second.

Going from B11 to B12, the “Activity retention rate at 100 nM” value rises from 95% to 105%.

Compared with B13, B14 is lower in “Activity retention rate at 100 nM” value: 111% for the first, 83% for the second.

Going from B15 to B16, the “Activity retention rate at 100 nM” value falls from 86% to 78%.

Compared with B17, B18 is higher in “Activity retention rate at 100 nM” value: 56% for the first, 67% for the second.

Compared with B19, B20 is lower in “Activity retention rate at 100 nM” value: 76% for the first, 75% for the second.

Compared with B21, B22 is lower in “Activity retention rate at 100 nM” value: 36% for the first, 22% for the second.

Compared with B1, B2 is lower in “Activity retention rate at 300 nM” value: 105% for the first, 80% for the second.

Compared with B3, B4 is lower in “Activity retention rate at 300 nM” value: 102% for the first, 90% for the second.

Compared with B5, B6 is lower in “Activity retention rate at 300 nM” value: 108% for the first, 86% for the second.

First: B7
Second: B8
The “Activity retention rate at 300 nM” value of the first is lower: 51% for the first, 105% for the second.

Going from B9 to B10, the “Activity retention rate at 300 nM” value rises from 28% to 77%.

Compared with B11, B12 is higher in “Activity retention rate at 300 nM” value: 42% for the first, 53% for the second.

Going from B13 to B14, the “Activity retention rate at 300 nM” value rises from 73% to 99%.

Compared with B15, B16 is lower in “Activity retention rate at 300 nM” value: 75% for the first, 41% for the second.

Compared with B17, B18 is higher in “Activity retention rate at 300 nM” value: 42% for the first, 58% for the second.

Going from B19 to B20, the “Activity retention rate at 300 nM” value falls from 72% to 67%.

Compared with B21, B22 is lower in “Activity retention rate at 300 nM” value: 65% for the first, 52% for the second.

Compared with B1, B2 is higher in “Luminescence value at 33 nM” value: 2.47e+06 for the first, 5.46e+06 for the second.

First: B3
Second: B4
The “Luminescence value at 33 nM” value of the first is higher: 5.18e+06 for the first, 2e+06 for the second.

Compared with B5, B6 is higher in “Luminescence value at 33 nM” value: 4.07e+06 for the first, 8.75e+06 for the second.

Going from B7 to B8, the “Luminescence value at 33 nM” value falls from 1.27e+07 to 2.5e+06.

Going from B9 to B10, the “Luminescence value at 33 nM” value falls from 1.53e+07 to 1.49e+06.

Going from B11 to B12, the “Luminescence value at 33 nM” value falls from 1.23e+07 to 1.07e+07.

Going from B13 to B14, the “Luminescence value at 33 nM” value falls from 8.51e+06 to 4.63e+06.

Going from B15 to B16, the “Luminescence value at 33 nM” value falls from 7.86e+06 to 6.26e+06.

First: B17
Second: B18
The “Luminescence value at 33 nM” value of the first is lower: 1.92e+06 for the first, 4.7e+06 for the second.

First: B19
Second: B20
The “Luminescence value at 33 nM” value of the first is higher: 5.24e+06 for the first, 4.67e+06 for the second.

Going from B21 to B22, the “Luminescence value at 33 nM” value falls from 760000 to 391000.

Going from B1 to B2, the “Luminescence value at 100 nM” value rises from 1.2e+07 to 1.29e+07.

Compared with B3, B4 is lower in “Luminescence value at 100 nM” value: 1.67e+07 for the first, 8.87e+06 for the second.

First: B5
Second: B6
The “Luminescence value at 100 nM” value of the first is lower: 1.54e+07 for the first, 1.64e+07 for the second.

Going from B7 to B8, the “Luminescence value at 100 nM” value falls from 1.51e+07 to 1.13e+07.

Going from B9 to B10, the “Luminescence value at 100 nM” value falls from 1.53e+07 to 7.45e+06.

Compared with B11, B12 is higher in “Luminescence value at 100 nM” value: 1.58e+07 for the first, 1.76e+07 for the second.

First: B13
Second: B14
The “Luminescence value at 100 nM” value of the first is higher: 1.85e+07 for the first, 1.39e+07 for the second.

Going from B15 to B16, the “Luminescence value at 100 nM” value falls from 1.43e+07 to 1.31e+07.

Compared with B17, B18 is higher in “Luminescence value at 100 nM” value: 9.37e+06 for the first, 1.12e+07 for the second.

Going from B19 to B20, the “Luminescence value at 100 nM” value falls from 1.27e+07 to 1.26e+07.

First: B21
Second: B22
The “Luminescence value at 100 nM” value of the first is higher: 6.04e+06 for the first, 3.72e+06 for the second.

First: B1
Second: B2
The “Luminescence value at 300 nM” value of the first is higher: 1.31e+07 for the first, 9.92e+06 for the second.

First: B3
Second: B4
The “Luminescence value at 300 nM” value of the first is higher: 1.27e+07 for the first, 1.11e+07 for the second.

Compared with B5, B6 is lower in “Luminescence value at 300 nM” value: 1.34e+07 for the first, 1.06e+07 for the second.

First: B7
Second: B8
The “Luminescence value at 300 nM” value of the first is lower: 6.39e+06 for the first, 1.31e+07 for the second.

Compared with B9, B10 is higher in “Luminescence value at 300 nM” value: 3.46e+06 for the first, 9.63e+06 for the second.

Going from B11 to B12, the “Luminescence value at 300 nM” value rises from 5.23e+06 to 6.59e+06.

Compared with B13, B14 is higher in “Luminescence value at 300 nM” value: 9.07e+06 for the first, 1.23e+07 for the second.

Going from B15 to B16, the “Luminescence value at 300 nM” value falls from 9.32e+06 to 5.05e+06.

Compared with B17, B18 is higher in “Luminescence value at 300 nM” value: 5.16e+06 for the first, 7.23e+06 for the second.

Compared with B19, B20 is lower in “Luminescence value at 300 nM” value: 8.9e+06 for the first, 8.3e+06 for the second.

Compared with B21, B22 is lower in “Luminescence value at 300 nM” value: 8.05e+06 for the first, 6.48e+06 for the second.
